Data taken from the DeepSol protein solubility set.

Assay: soluble on expression in E. coli; label from the status in PepcDB or PDB records
With “GSHMASDLKNPYERIQAEAYDAMSGIQTEGTDDDGGGDNIGWINDGDWVKYERVHFERDASSIEVRVASDTPGGRIEIRTGSPTGTLLGDVQVPNTGGWQQWQTVTGNVQIQPGTYDVYLVFKGSPEYDLMNVNWFVFRANG” the “soluble on expression in E. coli” value was “soluble”. With “GSHMASMTGGQQMGRGSWKRAFLAFGSNIGDRFKHIQMALQLLSREKTVKLRNISSIFESEPMYFKDQTPFMNGCVEVETLLTPSELLKLCKKIEYEELQRVKHFDNGPRTIDLDIVMFLNSAGEDIIVNEPDLNIPHPRMLERTFVLEPLCELISPVHLHPVTAEPIVDHLKQLYDKQHDEDTLWKLVPLPYRSGVEPRFLKFKTATKLDEFTGETNRITVSPTYIMAIFNATPDSFSDGGEHFADIESQLNDIIKLCKDALYLHESVIIDVGGCSTRPNSIQASEEEEIRRSIPLIKAIRESTELPQDKVILSIDTYRSNVAKEAIKVGVDIINDISGGLFDSNMFAVIAENPEICYILSHTRGDISTMNRLAHYENFALGDSIQQEFVHNTDIQQLDDLKDKTVLIRNVGQEIGERYIKAIDNGVKRWQILIDPGLGFAKTWKQNLQIIRHIPILKNYSFTMNSNNSQVYVNLRNMPVLLGPSRKKFIGHITKDVDAKQRDFATGAVVASCIGFGSDMVRVHDVKNCSKSIKLADAIYKGLE” the “soluble on expression in E. coli” value was “soluble”. With “GSHMASPPTHNAHNWRLGQAPANWYNDTYPLSPPQRTPAGIRYRIAVIADLDTESRAQEENTWFSYLKKGYLTLSDSGDKVAVEWDKDHGVLESHLAYKGRGMELSDLIVFNGKLYSVDDRTGVVYQIEGSKAVPWVILSDGDGTVEKGFKAEWLAVKDERLYVGGLGKEWTTTTGDVVNENPEWVKVVGYKGSVDHENWVSNYNALRAAAGIQPPGYLIHESACWSDTLQRWFFLPRRASQERYSEKDDERKGANLLLSASPDFGDIAVSHVGAVVPTHGFSSFKFIPNTDDQIIVALKSEEDSGRVASYIMAFTLDGRFLLPETKIGSVKYEGIEFI” the “soluble on expression in E. coli” value was “soluble”. In the case of “GSHMDLLDPVDILSKMPKDFYDKLEEKKWTLRKESLEVLEKLLTDHPKLENGEYGALVSALKKVITKDSNVVLVAMAGKCLALLAKGLAKRFSNYASACVPSLLEKFKEKKPNVVTALREAIDAIYASTSLEAQQESIVESLSNKNPSVKSETALFIARALTRTQPTALNKKLLKLLTTSLVKTLNEPDPTVRDSSAEALGTLIKLMGDKAVTPLLADVDPLKMAKIKECQEKAEIKIKVAG”, the “soluble on expression in E. coli” value is reported as “soluble”. In the case of “GSHMEKRTPHTRLSQVKKLVNAGQVRTTRSALLNADELGLDFDGMCNVIIGLSESDFYKSMTTYSDHTIWQDVYRPRLVTGQVYLKITVIHDVLIVSFKEK”, the “soluble on expression in E. coli” value is reported as “soluble”. In the case of “GSHMFMPSDRSTERCETVLEGETISCFVVGGEKRLCLPQILNSVLRDFSLQQINAVCDELHIYCSRCTADQLEILKVMGILPFSAPSCGLITKTDAERLCNALLYG”, the “soluble on expression in E. coli” value is reported as “soluble”. With “GSHMGGRLEGLTQDLRQLQESEQQLDHLMNICTTQLRLLSEDTDSQRLAYVTCQDLRSIADPAEQMVMVIKAPPETQLQAVDSSENFQISLKSKQGPIDVFLCPEE” the “soluble on expression in E. coli” value was “soluble”. For “GSHMGKDCIMHGYMSKMGNPFLTQWQRRYFYLFPNRLEWRGEGEAPQSLLTMEEIQSVEETQIKERKCLLLKIRGGKQFILQCDSDPELVQWKKELRDAYREAQQLVQRVPKMKNKPRS”, the “soluble on expression in E. coli” value was “soluble”. For “GSHMNIITVTLNMEKYNFLGISIVGQSNERGDGGIYIGSIMKGGAVAADGRIEPGDMLLQVNDMNFENMSNDDAVRVLRDIVHKPGPIVLTVAKSGGGGEIVLWSDIP”, the “soluble on expression in E. coli” value was “soluble”. With “GSHMRRYIGVMMLTLSPSILAELQLREPSFPDVQHGVLIHKVILGSPAHRAGLRPGDVILAIGEQMVQNAEDVYEAVRTQSQLAVQIRRGRETLTLYVTPEVTEGGGWTMFWV” the “soluble on expression in E. coli” value was “soluble”. For “GSHMTRETERFPAREFQRDLLDWFARERRDLPWRKDRDPYKVWVSEVMLQQTRVETVIPYFEQFIDRFPTLEALADADEDEVLKAWEGLGYYSRVRNLHAAVKEVKTRYGGKVPDDPDEFSRLKGVGPYTVGAVLSLAYGVPEPAVDGNVMRVLSRLFLVTDDIAKPSTRKRFEQIVREIMAYENPGAFNEALIELGALVCTPRRPSCLLCPVQAYCQAFAEGVAEELPVKMKKTAVKQVPLAVAVLADDEGRVLIRKRDSTGLLANLWEFPSCETDGADGKEKLEQMVGEQYGLQVELTEPIVSFEHAFSHLVWQLTVFPGRLVHGGPVEEPYRLAPEDELKAYAFPVSHQRVWREYKEWASGVRPPP”, the “soluble on expression in E. coli” value was “soluble”. In the case of “GSHMVNIIQKFIPVGANNRPGYAMKPKYITVHNTANTAVGADAAAHARYLKNPDTTTSWHFTVDDKEIYQHLPLNENGWHAGDGNGSGNRASIGIEICENADGDFAKATANAQWLIKTLMAEHNISLANVVPHKYWSGKECPRKLLDKWDSFKAGIG”, the “soluble on expression in E. coli” value is reported as “soluble”. For “GSHMVVELAYTDPDRAVDWLVRVFGFRLLLRQPAIGTIRHADLDTGGGIVMVRRTGEPYTVSCAGGHTCKQVIVWVSDVDEHFMRSTAAGADIVQPLQDKPWGLRQYLVRDLEGHLWEFTRHLRDVPPREWGAVAMT”, the “soluble on expression in E. coli” value was “soluble”. For “GSLKCILLNQAEELPIEFLPKDGVYGKGKLFDSRNMEIENFTESDILQDARRAAEAHRRARYRVQSIVRPGITLLEIVRSIEDSTRTLLKGERNNGIGFPAGMSMNSCAAHYTVNPGEQDIVLKEDDVLKIDFGTHSDGRIMDSAFTVAFKENLEPLLVAAREGTETGIKSLGVDVRVCDIGRDINEVISSYEVEIGGRMWPIRPISDLHGHSISQFRIHGGISIPAVNNRDTTRIKGDSFYAVETFATTGKGSIDDRPPCSHFVLNTYKSRKLFNKDLIKVYEFVKDSLGTLPFSPRHLDYYGLVKGGSLKSVNLLTMMGLLTPYPPLNDIDGCKVAQFEHTVYLSEHGKEVLTRGDDY”, the “soluble on expression in E. coli” value was “soluble”. In the case of “GSMALTQVETEIVPVSVDGETLTVEAVRRVAEERATVDVPAESIAKAQKSREIFEGIAEQNIPIYGVTTGYGEMIYMQVDKSKEVELQTNLVRSHSAGVGPLFAEDEARAIVAARLNTLAKGHSAVRPIILERLAQYLNEGITPAIPEIGSLGASGDLAPLSHVASTLIGEGYVLRDGRPVETAQVLAERGIEPLELRFKEGLALINGTSGMTGLGSLVVGRALEQAQQAEIVTALLIEAVRGSTSPFLAEGHDIARPHEGQIDTAANMRALMRGSGLTVEHADLRRELQKDKEAGKDVQRSEIYLQKAYSLRAIPQVVGAVRDTLYHARHKLRIELNSANDNPLFFEGKEIFHGANFHGQPIAFAMDFVTIALTQLGVLAERQINRVLNRHLSYGLPEFLVSGDPGLHSGFAGAQYPATALVAENRTIGPASTQSVPSNGDNQDVVSMGLISARNARRVLSNNNKILAVEYLAAAQAVDISGRFDGLSPAAKATYEAVRRLVPTLGVDRYMADDIELVADALSRGEFLRAIARETDIQLR”, the “soluble on expression in E. coli” value is reported as “soluble”. For “GSMHEYSVVSSLIALCEEHAKKNQAHKIERVVVGIGERSAMDKSLFVSAFETFREESLVCKDAILDIVDEKVELECKDCSHVFKPNALDYGVCEKCHSKNVIITQGNEMRLLSLEMLAE”, the “soluble on expression in E. coli” value was “soluble”. For “GSMKPYKELERVFTKLYRYGHMLLLADWDSHTMMPCKGSDARGAAMAELQLHMHDTITAPKIRALIEEAEKSVGDLEKLQRANLREMRRAWELENLLPEEFVERKTVLTTKAHQVWKTCREKNDFAGFLPTLKELIALFREEGKLRAGNSGKHPYEALVDIYEPGMTLQRLDEIFGNVRSWLPELLKEVQEKQKALGETVLEPKGPFPVSKQEALCRFFMDVWKFDFDGGRLDVSAHPFCGNSKEDVRITTKYTETEFVTSLLGVIHETGHAKYEQNCGPKGFETQPVCMARSLGVHEGQSLFAEMQIGRSGAFMEFLAPRLVEYFGDQPAFTSSNMKRVIQRVSPGLIRIDADELCYPLHVMLRYEIERDLMDGNIEAEEVPRVWNEKMKSYLGLETLGNDKEGCLQDVHWSGGMFGYFPTYSLGAMVAAQLMSCVRRELGEEVVDDCIRKGDLGKILAKQNEKIWQHGSSLTTDELLRQATGETLNPEHYRRHLERRYRDDRG”, the “soluble on expression in E. coli” value was “soluble”. In the case of “GSMSTKNFRVSDGDWICPDKKCGNVNFARRTSCDRCGREKTTGPI”, the “soluble on expression in E. coli” value is reported as “soluble”. For “GSPEFRWTKEEEETRQMYDMVVKIIDVLRSHNEACQENKDLQPYMPIPHVRDSLIQPHDRKKMKKVWDRAVDFLAANESRVRTETRRIGGADFLVWRWIQPSASCDKILVIPSKVWQGQAFHLDRRLERPHRD”, the “soluble on expression in E. coli” value was “soluble”. With “GSPGGSLFVALYDFVASGDNTLSITKGEKLRVLGYNHNGEWCEAQTKNGQGWVPSNYITPVS” the “soluble on expression in E. coli” value was “soluble”. For “GSPGIPGSTRMAYQHCPFDTLLILDFETTSDAANQDYPCEVIQFAIVAYDVPNDKIREDISFNKYVKPVLNRTLTKNCVDFTGIPQRSIDTADTFDVVYEQFQQWLITLGLEEGKFAFVCDSRQDLWRIAQYQMKLSNIQMPAFFRQYINLYKIFTNEMDRMGPKELSATTNIGKMNEYYDLPTIGRAHDAMDDCLNIATILQRMINMGAKVTVNELLTCCASWRRQPLVYNKEWRSSFMDAGKIFERVLPLVVTTIRAGDFRLEMYGVCRYCRKGMDVCGTSHQQTPHDLYKNEEDPIHFAKIAGYY”, the “soluble on expression in E. coli” value was “soluble”. In the case of “GSQEQKGDAPTCGICHKTKFADGCGHNCSYCQTKFCARCGGRVSLRSNKVMWVCNLCRKQQE”, the “soluble on expression in E. coli” value is reported as “soluble”. For “GSQRVLVEPDAGAGVAVMKFKNPPVNSLSLEFLTELVISLEKLENDKSFRGVILTSDRPGVFSAGLDLTEMCGRSPAHYAGYWKAVQELWLRLYQSNLVLVSAINGACPAGGCLVALTCDYRILADNPRYCIGLNETQLGIIAPFWLKDTLENTIGHRAAERALQLGLLFPPAEALQVGIVDQVVPEEQVQSTALSAIAQWMAIPDHARQLTKAMMRKATASRLVTQRDADVQNFVSFISKDSIQKSLQMYLERLKEEKG”, the “soluble on expression in E. coli” value was “soluble”. In the case of “GSRNHCPHLDSVGEITKEDLIQKSLGTCQDCKVQGPNLWACLENRCSYVGCGESQVDHSTIHSQETKHYLTVNLTTLRVWCYACSKEVFLDRKLGTQ”, the “soluble on expression in E. coli” value is reported as “soluble”. In the case of “GSRTVDLELELQIELLRETKRKYESVLQLGRALTAHLYSLLQTQHALGDAFADLSQKSPELQEEFGYNAETQKLLCKNGETLLGAVNFFVSSINTLVTKTMEDTLMTVKQYEAARLEYDAYRTDLEELSLGPRDAGTRGRLESAQATFQAHRDKYEKLRGDVAIKLKFLEENKIKVMHKQLLLFHNAVSAYFAGNQKQLEQTLQQFNIKLRPPGAEKPSWLEEQ”, the “soluble on expression in E. coli” value is reported as “soluble”. With “GSSCPGKSSWPHLVGVGGSVAKAIIERQNPNVKAVILEEGTPVTKDFRCNRVRIWVNKRGLVVSPPRIG” the “soluble on expression in E. coli” value was “soluble”. For “GSSGSSGMCGRFAQSQTREDYLALLAEDIERDIPYDPEPIGRYNVAPGTKVLLLSERDEHLHLDPVFWGYAPGWWDKPPLINARVETAATSRMFKPLWQHGRAICFADGWFEWKKEGDKKQPFFIYRADGQPIFMAAIGSTPFERGDEAEGFLIVTAAADQGLVDIHDRRPLVLSPEAAREWMRQEISGKEASEIAASGCVPANQFSWHPVSRAVGNVKNQGAELIQPV”, the “soluble on expression in E. coli” value was “soluble”. For “GSSKSWANHENKTVNKITVVGGGELGIACTLAISAKGIADRLVLLDLSEGTKGATMDLEIFNLPNVEISKDLSASAHSKVVIFTVNSLGSSQSYLDVVQSNVDMFRALVPALGHYSQHSVLLVASQPVEIMTYVTWKLSTFPANRVIGIGCNLDSQRLQYIITNVLKAQTSGKEVWVIGEQGEDKVLTWSGQEEVVSHTSQVQLSNRAMELLRVKGQRSWSVGLSVADMVDSIVNNKKKVHSVSALAKGYYDINSEVFLSLPCILGTNGVSEVIKTTLKEDTVTEKLQSSASSIHSLQQQLKL”, the “soluble on expression in E. coli” value was “soluble”. With “GTVKVYLPNKQRTVVTVRDGMSVYDSLDKALKVRGLNQDCCVVYRLIKGRKTVTAWDTAIAPLDGEELIVEVL” the “soluble on expression in E. coli” value was “soluble”.
